Assay results published in patent publication US20230079955A1 (POSEIDA THERAPEUTICS, published 2023).
Where a chain is given by its changes, count along the chain named.

B1: "L2H2" CAR (humanized MUC1-C scFv chimeric antigen receptor) (other)
chain: EILLTQSPDFQSVTPKEKVTFTCRASQSIGTSIHWYQQKPNQSPKLLIKYASESISGVPSRFSGSGSGTDFTLTINSVESEDIADYYCQQSNNWPLTFGQGTKLEIKGGGGSGGGGSGGGGSQVQLVQSGAEVKKPGSSVKISCKTSGYAFSNFWMNWVRQAPGQGLEWIGQIYPGDGDTNYNGKFKGRVTLTADKSTSTAYMELSSLRSEATAVYFCARSYYRSAWFAYWGQGTLVTVSSTTTPAPRPPTPAPTIASQPLSLRPEACRPAAGGAVHTRGLDFACDIYIWAPLAGTCGVLLLSLVITLYCKRGRKKLLYIFKQPFMRPVQTTQEEDGCSCRFPEEEEGGCELRVKFSRSADAPAYKQGQNQLYNELNLGRREEYDVLDKRRGRDPEMGGKPRRKNPQEGLYNELQKDKMAEAYSEIGMKGERRRGKGHDGLYQGLSTATKDTYDALHMQALPPR
B2: "L1H2" CAR (humanized MUC1-C scFv chimeric antigen receptor) (other)
chain: B1 chain with V78L, D85T
B3: "L1H2B" CAR (humanized MUC1-C scFv chimeric antigen receptor) (other)
chain: B1 chain with V78L, D85T, G184A
B4: "L1H3" CAR (humanized MUC1-C scFv chimeric antigen receptor) (other)
chain: B1 chain with V78L, D85T, R160K, A162R, V190A
B5: "L1H4" CAR (humanized MUC1-C scFv chimeric antigen receptor) (other)
chain: B1 chain with V78L, D85T, R160K, A162R, V190A, T198S
B6: "L2H3" CAR (humanized MUC1-C scFv chimeric antigen receptor) (other)
chain: B1 chain with R160K, A162R, V190A
B7: "L2H4" CAR (humanized MUC1-C scFv chimeric antigen receptor) (other)
chain: B1 chain with R160K, A162R, V190A, T198S
B8: "L3H2" CAR (humanized MUC1-C scFv chimeric antigen receptor) (other)
chain: B1 chain with T74S
notes: also called 13H2
B9: "L3H3" CAR (humanized MUC1-C scFv chimeric antigen receptor) (other)
chain: B1 chain with T74S, R160K, A162R, V190A
B10: "L3H4" CAR (humanized MUC1-C scFv chimeric antigen receptor) (other)
chain: B1 chain with T74S, R160K, A162R, V190A, T198S
notes: also called 13H4

The binders below were run against MUC1 on MDA-MB-468.lucGFP cells (UniProt P15941 24-1255) (assay: cell-based or functional assay).
Sequence of MUC1 on MDA-MB-468.lucGFP cells (P15941 24-1255): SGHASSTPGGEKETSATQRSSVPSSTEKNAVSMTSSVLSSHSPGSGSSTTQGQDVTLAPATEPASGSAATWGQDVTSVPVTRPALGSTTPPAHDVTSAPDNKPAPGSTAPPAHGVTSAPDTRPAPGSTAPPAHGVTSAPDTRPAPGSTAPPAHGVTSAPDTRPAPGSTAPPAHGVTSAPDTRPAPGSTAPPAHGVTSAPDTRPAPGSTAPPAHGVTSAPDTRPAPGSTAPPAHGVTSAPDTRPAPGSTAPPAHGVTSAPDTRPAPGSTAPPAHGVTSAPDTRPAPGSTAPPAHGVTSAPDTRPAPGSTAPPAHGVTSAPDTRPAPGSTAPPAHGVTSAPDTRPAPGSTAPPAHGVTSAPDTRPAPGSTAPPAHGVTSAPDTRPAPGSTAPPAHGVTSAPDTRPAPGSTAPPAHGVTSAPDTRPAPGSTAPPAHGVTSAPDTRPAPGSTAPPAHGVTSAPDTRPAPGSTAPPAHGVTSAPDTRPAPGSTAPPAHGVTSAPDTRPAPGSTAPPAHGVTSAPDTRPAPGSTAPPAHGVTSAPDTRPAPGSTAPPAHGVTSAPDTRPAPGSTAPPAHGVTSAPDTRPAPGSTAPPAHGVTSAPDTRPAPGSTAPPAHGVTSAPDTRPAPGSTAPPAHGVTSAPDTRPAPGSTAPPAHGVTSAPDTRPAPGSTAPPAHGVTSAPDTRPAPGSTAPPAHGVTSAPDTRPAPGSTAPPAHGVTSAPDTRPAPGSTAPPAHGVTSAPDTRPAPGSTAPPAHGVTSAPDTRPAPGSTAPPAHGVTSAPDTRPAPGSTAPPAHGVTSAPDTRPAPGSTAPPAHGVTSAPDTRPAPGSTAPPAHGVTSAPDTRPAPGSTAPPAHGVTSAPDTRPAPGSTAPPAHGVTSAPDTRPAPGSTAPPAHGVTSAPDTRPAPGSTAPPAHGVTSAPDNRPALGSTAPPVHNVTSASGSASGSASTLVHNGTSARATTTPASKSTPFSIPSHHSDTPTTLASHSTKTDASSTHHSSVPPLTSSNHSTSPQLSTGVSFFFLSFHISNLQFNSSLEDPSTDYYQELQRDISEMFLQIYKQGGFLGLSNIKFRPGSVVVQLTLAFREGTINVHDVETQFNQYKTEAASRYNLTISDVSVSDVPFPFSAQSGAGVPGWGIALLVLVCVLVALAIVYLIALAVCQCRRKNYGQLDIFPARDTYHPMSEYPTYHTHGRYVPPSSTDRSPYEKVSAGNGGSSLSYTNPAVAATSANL

Compared with B1, B2 is lower in “Target cell killing area under the curve (AUC)” value (shortened to “Target cell killing area”): 482 for the first, 466 for the second.

Going from B3 to B4, the “Target cell killing area” value falls from 528 to 490.

Compared with B5, B6 is higher in “Target cell killing area” value: 498 for the first, 542 for the second.

Going from B7 to B8, the “Target cell killing area” value falls from 518 to 503.

Compared with B9, B10 is lower in “Target cell killing area” value: 518 for the first, 501 for the second.

These binders were tested against T1, His-tagged p62/p58 MUC1 protein (UniProt P15941 1036-1155, limits assumed) (assay: flow cytometry of CAR-T cells stained with His-tagged p62/p58 MUC1 protein and anti-His secondary antibody, day 19).
T1 construct: domain: p62/p58; Soluble staining reagent for the CAR on T cells, detected with an anti-His secondary antibody; not shown: His tag
T1 sequence (looked up): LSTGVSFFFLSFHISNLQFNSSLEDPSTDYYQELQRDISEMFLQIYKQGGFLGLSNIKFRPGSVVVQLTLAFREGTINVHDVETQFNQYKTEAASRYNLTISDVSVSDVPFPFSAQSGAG
Excerpt: (§1) MUC1-C candidate CARs were subcloned into a tricistronic piggyBac transposon (EF1alpha promoter-iC9 Safety Switch-T2A-MUC1-C CAR-T2A-DHFR selection gene) and CAR-T cells were produced using pan T cells from a normal human blood donor as described herein (FIG. 6). Expression of each candidate CAR on the surface of piggyBac-modified cells was confirmed by FACS staining 19 days post-transposon delivery using an His-tagged p62/p58 MUC1 protein, followed by anti-His secondary antibody (FIG. 6). Specifically, cells were examined by flow cytometry for surface-expression of CAR on either mock transposed (blue) or anti-CD3/CD28 bead re-activated (red) cells (activation for 48 hours) that received transposon encoding CAR and data are shown as overlaid histograms; numbers represent percentage of cells expressing CAR on cell surface. All candidate MUC1-C CARs were expressed and detected on the surface of piggyBac-produced CAR-T cells (FIG. 7).

Compared with B1, B2 is higher in “MFI (non-activated cells)” value: 717 MFI for the first, 720 MFI for the second.

Going from B3 to B4, the “MFI (non-activated cells)” value rises from 714 MFI to 743 MFI.

Compared with B5, B6 is higher in “MFI (non-activated cells)” value: 737 MFI for the first, 770 MFI for the second.

First: B7
Second: B8
The “MFI (non-activated cells)” value of the first is higher: 729 MFI for the first, 726 MFI for the second.

Going from B9 to B10, the “MFI (non-activated cells)” value falls from 696 MFI to 695 MFI.

Each binder was assayed against T1, His-tagged p62/p58 MUC1 protein (assay: flow cytometry of CAR-T cells (anti-CD3/CD28 bead re-activated, 48 hours) stained with His-tagged p62/p58 MUC1 protein and anti-His secondary antibody).
Excerpt: as §1

First: B1
Second: B2
The “MFI (activated cells)” value of the first is higher: 3830 MFI for the first, 3030 MFI for the second.

Compared with B3, B4 is higher in “MFI (activated cells)” value: 2990 MFI for the first, 3320 MFI for the second.

Going from B5 to B6, the “MFI (activated cells)” value rises from 2510 MFI to 2880 MFI.

Compared with B7, B8 is higher in “MFI (activated cells)” value: 3020 MFI for the first, 3620 MFI for the second.

Going from B9 to B10, the “MFI (activated cells)” value falls from 2580 MFI to 1960 MFI.
